Measurements as given in PMC6297230, “Structural basis of meiotic telomere attachment to the nuclear envelope by MAJIN-TERB2-TERB1” (Nature Communications, 2018).
Residue numbers refer to the chain shown, from its start. Numbers in names are those of the source. Where “and” joins values, the source holds several entries; their conditions need not be identical. Equal values may be shown once.

T1: His6–TRF1_(TRFH) (human, UniProt P54274 62-268)
T1 construct: source: E. coli BL21 (DE3), co-purified with MBP–TERB1 fusions
T1 sequence (looked up): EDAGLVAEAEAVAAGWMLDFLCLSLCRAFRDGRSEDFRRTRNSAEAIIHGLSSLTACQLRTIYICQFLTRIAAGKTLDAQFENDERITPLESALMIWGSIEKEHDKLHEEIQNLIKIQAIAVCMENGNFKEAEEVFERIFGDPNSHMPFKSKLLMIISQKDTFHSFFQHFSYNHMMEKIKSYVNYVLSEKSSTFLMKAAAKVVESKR

T2: full length TERB2 (1–220) (human, UniProt Q8NHR7 1-220)
T2 construct: human TERB2, canonical isoform Q8NHR7, full length, amino acids 1-220; source: E. coli BL21 (DE3), co-expressed with MAJIN and TERB1, purified (Ni-NTA, amylose, ion exchange, SEC)
T2 sequence (looked up): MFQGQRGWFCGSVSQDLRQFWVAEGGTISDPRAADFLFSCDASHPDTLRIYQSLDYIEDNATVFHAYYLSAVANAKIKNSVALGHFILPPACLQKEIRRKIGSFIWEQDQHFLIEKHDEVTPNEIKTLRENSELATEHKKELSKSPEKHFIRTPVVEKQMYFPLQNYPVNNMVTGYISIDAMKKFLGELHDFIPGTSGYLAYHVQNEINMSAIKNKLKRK

B1: TRF homology domain of TRF1 (amino acids 62–268) (domain or fragment, human, UniProt P54274 62-268, looked up)
chain: T1 sequence (looked up)
notes: Dimer by SEC-MALS; also called TRF1_(TRFH); source: E. coli BL21 (DE3), purified (Ni-NTA, amylose, ion exchange, SEC; 10% glycerol, room temperature)
B2: TERB1 TRF1-binding domain (amino acids 561–658) (domain or fragment, human, UniProt Q8NA31 561-658, looked up)
chain: TDPFTLCSDIINKEVVSFLATPSCSEMLTYRCSGCIAVEKSLNSRNFSKLLHSCPYQCDRHKVIVEAEDRYKSELRKSLICNKKILLTPRRRQRLSNE
notes: human TERB1, canonical isoform Q8NA31, amino acids 561-658; The discussion prints 568–658 once for TRFB; also called TERB1_(TRFB); TRFB; source: E. coli BL21 (DE3), co-expressed with TRF1 TRFH and/or TERB2, purified (Ni-NTA, amylose, ion exchange, SEC)
B3: MBP–TERB1_(TRFB) partially phosphorylated by CDK1-CyclinB (domain or fragment, human, UniProt Q8NA31 561-658, looked up)
chain: B2 chain
modifications: only partially phosphorylated by CDK1-CyclinB (residue not named for this experiment)
notes: human TERB1, canonical isoform Q8NA31, amino acids 561-658; source: E. coli BL21 (DE3), co-purified with His6–TRF1 TRFH, then incubated with phosphorylated CDK1-CyclinB and ATP
B4: TERB1 TRF1-binding domain (amino acids 561–658) T648E (domain or fragment, human, UniProt Q8NA31 561-658, looked up)
chain: B2 chain with T88E
notes: human TERB1, canonical isoform Q8NA31, amino acids 561-658, phosphomimetic T648E; it may be an MBP fusion as in the phosphorylation assays; also called TERB1_(TRFB) T648E; source: E. coli BL21 (DE3), purified
B5: TERB2 C-terminus (amino acids 168–220) (domain or fragment)
chain: PVNNMVTGYISIDAMKKFLGELHDFIPGTSGYLAYHVQNEINMSAIKNKLKRK
B6: full length TERB2 (1–220) (natural protein)
chain: T2 sequence (looked up)
B7: TERB2 N-terminal end (amino acids 1–107) (domain or fragment, human, UniProt Q8NHR7 1-107, looked up)
chain: MFQGQRGWFCGSVSQDLRQFWVAEGGTISDPRAADFLFSCDASHPDTLRIYQSLDYIEDNATVFHAYYLSAVANAKIKNSVALGHFILPPACLQKEIRRKIGSFIWE
notes: Forms large aggregates in isolation; source: E. coli BL21 (DE3), co-expressed with TERB1, purified (Ni-NTA, amylose, ion exchange, SEC)
B8: TERB1 TERB2-binding site (amino acids 585–642) (domain or fragment, human, UniProt Q8NA31 585-642, looked up)
chain: SEMLTYRCSGCIAVEKSLNSRNFSKLLHSCPYQCDRHKVIVEAEDRYKSELRKSLICN
notes: human TERB1, canonical isoform Q8NA31, amino acids 585-642; Forms large aggregates in isolation; also called TERB1T2B; T2B; source: E. coli BL21 (DE3), co-expressed with TERB2, purified (Ni-NTA, amylose, ion exchange, SEC)
B9: FAM random dsDNA (145 bp) (dsDNA)
DNA 1: TTCCAGGGTTCCATGGAGATAAAGGTCAATAAATTAGAGTTAGAACTAGAAAGTGCCAAACAGAAATTTGGAGAAATCACAGACACCTATCAGAAAGAAATTGAGGACAAAAAGATATCAGAATAATAACCATGGATATCGAATT
DNA 2: AATTCGATATCCATGGTTATTATTCTGATATCTTTTTGTCCTCAATTTCTTTCTGATAGGTGTCTGTGATTTCTCCAAATTTCTGTTTGGCACTTTCTAGTTCTAACTCTAATTTATTGACCTTTATCTCCATGGAACCCTGGAA

Key:
[1] = target: MAJIN N-terminal structural core (amino acids 1–112) (human); assay: SEC-MALS; purified (co-expressed) samples at > 1 mg/ml on Superdex 200 Increase 10/300 GL in 20 mM Tris pH 8.0, 250 mM KCl, 2 mM DTT
[2] = target: GST-TERB1 TBM (Homo sapiens) (UniProt Q8NA31); settings: cited from earlier work
TERB1 TBM (Homo sapiens) = TERB1 TBM (Homo sapiens) (UniProt Q8NA31); settings: cited from earlier work
[3] = target: MAJIN core, truncated (amino acids 1–106) (human); assay: SEC-MALS; purified (co-expressed) samples at > 1 mg/ml on Superdex 200 Increase 10/300 GL in 20 mM Tris pH 8.0, 250 mM KCl, 2 mM DTT
[4] = target: TRF homology domain of TRF1 (amino acids 62–268) (human) (UniProt P54274); assay: SEC-MALS; relative binding affinities estimated from dissociation of TRF1 TRFH–TERB1 complexes upon serial dilution (Supplementary Fig. 13a–d)
[5] = target: MAJIN_(Core+BP1)-TERB2–TERB1_(TRFB) complex (1–147, 1–220, 561–658) (human) (UniProt Q8NHR7); assay: SEC-MALS; complex reconstituted by adding TRF1 TRFH to purified MAJIN–TERB2–TERB1(TRFB) (Supplementary Fig. 12c); settings: scale: TRF1 TRFH chains per 2:2:2 MAJIN–TERB2–TERB1 complex
[6] = target: the molecule itself; assay: SEC-MALS; purified (co-expressed) samples at > 1 mg/ml on Superdex 200 Increase 10/300 GL in 20 mM Tris pH 8.0, 250 mM KCl, 2 mM DTT
[7] = target: B1; assay: as above; settings: both partners purified
His6–TRF1_(TRFH) = target: T1, His6–TRF1_(TRFH); assay: SEC-MALS; co-purified His6–TRF1 TRFH complexes with MBP–TERB1 TRFB (9 µM) or MBP–TERB1 TBM (130 µM) incubated with 9 µM phosphorylated CDK1-CyclinB in 40 mM Tris pH 7.5, 250 mM KCl, 20 mM MgCl2, 2 mM ATP, 10 mM DTT, 10 min at 30 °C and 50 min at 22 °C; also SDS–PAGE with ProQ-Diamond; settings: both partners purified
[8] = target: B1; assay: SEC-MALS; relative binding affinities estimated from dissociation of TRF1 TRFH–TERB1 complexes upon serial dilution (Supplementary Fig. 13a–d); settings: both partners purified
[9] = target: MAJIN N-terminal structural core (amino acids 1–112) (human); assay: SEC-MALS; purified (co-expressed) samples at > 1 mg/ml on Superdex 200 Increase 10/300 GL in 20 mM Tris pH 8.0, 250 mM KCl, 2 mM DTT; remark: listed apart in the source
Target sequence in this assay (Q3KP22 1-112): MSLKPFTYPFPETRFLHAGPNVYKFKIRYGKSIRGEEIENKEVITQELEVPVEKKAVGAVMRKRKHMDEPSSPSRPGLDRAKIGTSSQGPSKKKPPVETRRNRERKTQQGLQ

[10] = target: MAJIN core (amino acids 1–112) K24M K26E R28E K31D R34E R81D (human); assay: as above
[11] = target: MAJIN core (amino acids 1–112) F73E Y75E (human); assay: as above
[12] = target: MAJIN core, truncated (amino acids 1–106) (human); assay: as above; remark: listed apart in the source
[13] = target: B2; assay: as above; settings: both partners purified
[14] = target: B7; assay: as above; settings: both partners purified
[15] = target: T2, full length TERB2 (1–220); assay: as above; settings: both partners purified
TRF1 full length = TRF1 full length (human, UniProt P54274 1-439); assay: EMSA; apparent, Hill fit; EMSA: 20 mM Tris pH 8.0, 250 mM KCl, 1 h at 4 °C, 3% glycerol, 0.5% agarose in 0.5x TBE; 25 nM FAM-DNA for Kd (protein as oligomer), 0.3 uM DNA for display; settings: protein: recombinant; tags: tag removed (TEV); chain copies: 2; label: 5' 6-FAM; blunt
Sequence of TRF1 full length (P54274 whole entry): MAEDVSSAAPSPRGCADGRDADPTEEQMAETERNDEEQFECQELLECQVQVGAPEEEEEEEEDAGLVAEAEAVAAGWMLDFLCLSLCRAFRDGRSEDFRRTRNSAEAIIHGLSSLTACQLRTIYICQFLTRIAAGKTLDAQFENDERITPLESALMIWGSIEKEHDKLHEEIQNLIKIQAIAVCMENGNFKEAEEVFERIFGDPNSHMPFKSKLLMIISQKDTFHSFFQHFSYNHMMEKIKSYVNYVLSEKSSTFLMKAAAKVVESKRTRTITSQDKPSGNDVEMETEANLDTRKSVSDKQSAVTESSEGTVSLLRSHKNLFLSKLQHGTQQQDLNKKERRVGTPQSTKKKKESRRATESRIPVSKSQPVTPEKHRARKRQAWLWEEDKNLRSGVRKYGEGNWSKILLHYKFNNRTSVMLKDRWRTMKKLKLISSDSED

MAJIN N-terminal structural core (amino acids 1–112) (domain or fragment)
stoichiometry N (MAJIN chains in the 2:2:2 complex) [1]: 2 | stoichiometry N (MAJIN chains in the 2:2 complex) [1]: 2

TRF1 TRFH (from UniProt P54274)
Kd [2]: 75 nM | Kd (TERB1 TBM (Homo sapiens)): 5600 nM

MAJIN core, truncated (amino acids 1–106) (domain or fragment)
stoichiometry N (MAJIN chains in the 2:2 complex) [3]: 2

TERB1TBM (amino acids 642–658) (from UniProt Q8NA31 642-658) (peptide)
fold weaker binding than TERB1 TRFB [4]: > 100 fold

B1
stoichiometry N [5]: 4 | stoichiometry N [6]: 2 chains in the oligomer

B2
stoichiometry N [7]: 0.5 binder chains per target chain (2:1 TRF1:TERB1) and 0.5 binder chains per target chain (2:1:1 TRF1:TERB1:TERB2)

B3
stoichiometry N (His6–TRF1_(TRFH)): 0.5 binder chains per target chain (2:1 TRF1:TERB1)

B4
fold higher affinity than wild-type TERB1 TBM [8]: ≥ 10 fold

B5
stoichiometry N (binder chains per target chain (2:2)) [9]: 1 | stoichiometry N (binder chains per target chain (1:1)) [10]: 1 | stoichiometry N (binder chains per target chain (1:1)) [11]: 1

PVNNMVTGYISIDAMKKFLGELHDFIPGTSGYLAYHVQNE (domain or fragment) [TERB2 C-terminus, truncated (amino acids 168–207)]
stoichiometry N (binder chains per target chain (2:2)) [12]: 1

B6
stoichiometry N (binder chains per target chain (2:2:2)) [9]: 1

B7
stoichiometry N [13]: 1 binder chains per target chain (2:1:1 TRF1:TERB1:TERB2)

B8
stoichiometry N [14]: 1 binder chains per target chain (1:1) | stoichiometry N [15]: 1 binder chains per target chain (2:2:2)

B9
Kd (TRF1 full length): 100 nM
